Reference: US20210032364A1

Key:
[1] = biological target: Na+/K+ ATPase α-1 on mouse Lewis Lung LL/2 cancer cells (mouse) (UniProt Q8VDN2); assay: flow cytometry, 5 µg/ml, EDTA-treated intact mouse LL/2 cells
[2] = biological target: Na+/K+ ATPase α-1 on mouse Lewis Lung LL/2 cancer cells (mouse) (UniProt Q8VDN2); assay: flow cytometry, 5 µg/ml, EDTA-treated permeabilized mouse LL/2 cells
[3] = biological target: Na+/K+ ATPase α-1 on mouse Lewis Lung LL/2 cancer cells (mouse) (UniProt Q8VDN2); assay: flow cytometry, 5 µg/ml, trypsin-treated intact mouse LL/2 cells

- % cells stained [1]: 29.9%
- % cells stained [2]: 63.8%
- % cells stained [3]: 20.5%
Substance: mAb to Na+/K+ ATPase α-1 (Abcam, Cat. No. ab2826) (antibody)
